Test results: the DeepSol protein solubility set

assay: soluble on expression in E. coli; label from the status in PepcDB or PDB records

| Sequence | soluble on expression in E. coli |
| --- | --- |
| MPRFSCYEVRSEFPELERGIVYLDNAASTLKPRRVVEAMREFSYRSYANVHRGVHRLSMEASKAYEDAHEVVARLVGGSWDEVVFTRNTTEAMQLAALTLAYNGLLRGGEVLVTAADHHSTLLPWVRAARLGGGRARILPLDGRGVPRWDLLEDYITEDTRAVAVGHVSNVTGVVAPVEDIVKAAKKVGALVVLDSAQGVPHLPVDFRRMGVDMAAFSGHKMLGPTGIGVLWARRDLLEELEPPLGGGGTVSRVRLQGGSVEIEWEEPPWKFEAGTPPIIEAVGLAEAANMLMEIGMEHVARHEDELTSHTMKLLEPLYSEGLIRYVGPDKPGERHGIVSITTHLKSPDELGLLLDRRGIAVRTGLHCAHILHDHVDASMGSVWASFYIYNCKEDAERLAEALEEILTTRR | soluble |
| MGSDKIHHHHHHMFVNRKEELEFLERKWREEGAQLIIIYGRRRIGKTMLLKEFLKGKRGIYFLATADSMAENIRGLAEKFTKLTRREYFMEVRDFRRLFRYLAEEMGKERVAVVLDEFQYLISLDPGILSVLQKIWDEYLKDTGIFLILCGSSIGMMERTLEYKSPLYGRRTGAWKVKPFDIRGIAEMFPERSMEELVKIYAVFGGVPFYLDLIRNLSVENAIKERILKKGEILYEEPEFLLREELREPRVYKLILKGLALGYESLGELINFTGLDRGNLSKYLDTLERLELVGYELPYGKRKRGQYYIRDNFFNFWFRFVYPNLADLELGLVNEVWERISGEINAYYGKMFERLVREMLRLRILDFGQKGVSRWWHRGEEIDAIAELKDKLLFVEVKWKDLNRREARKILKDLKRKSERFEGEKEFLLIAKRIEDKEEGMLDLEDLEKVIRNL | not soluble |
| MHVFDNNGIELKAECSIGEEDGVYGLILESWGPGDRNKDYNIALDYIIERLVDSGVSQVVVYLASSSVRKHMHSLDERKIHPGEYFTLIGNSPRDIRLKMCGYQAYFSRTGRKEIPSGNRTKRILINVPGIYSDSFWASIIRGELSELSQPTDDESLLNMRVSKLIKKTLSQPEGSRKPVEVERLQKVYVRDPMVKAWILQQSKGICENCGKNAPFYLNDGNPYLEVHHVIPLSSGGADTTDNCVALCPNCHRELHYSKNAKELIEMLYVNINRLQKLEHHHHHH | soluble |
| MAHHHHHHLPALKLALEYIVPCMNKHGICVVDDFLGKETGQQIGDEVRALHDTGKFTDGQLVSQKSDSSKDIRGDKITWIEGKEPGCETIGLLMSSMDDLIRHCNGKLGSYKINGRTKAMVACYPGNGTGYVRHVDNPNGDGRCVTCIYYLNKDWDAKVSGGILRIFPEGKAQFADIEPKFDRLLFFWSDRRNPHEVQPAYATRYAITVWYFDADERARAKVKYLTGEKGVRVELNKPSDSVGKDVF | soluble |
| MAFLSQLQGGFAQLKQKAEAAAPSIADSLNQLKEAPKFMESAFKTGLNKVKLDSLGKVLNVPSLGRTQSPIDIVPVITAFGEHLQNAHFEVTYESTGEFKAVNDGNSIWLMREGNSSELAISFLPEEQYHLDAVNFHWATEPMNGSEHTIGGVGYAGEMHLIHRNTRFATMADALKQPNGVIAIAVFLNESHDDNAVFSPLINLLPQVIYKGSECKLCSFDFQTFFPVAEKTKEFWMYEGSETTDPFRETVNWIVIRAALPISSHQLDKLREVRAGRYDEEFSDKVPMKPLRPIQNPSSRTIQSSFRSVAGAPDLGFRQ | not soluble |
| TMNPLYSVKRAEKRRNVVLGRMLEVGKITQQQYEQAKAETVTATFYGTALEFRADYVTEMIRQEMVKRYGEDVAYNKGF | not soluble |
| MSSHPLSISSLSPSYSHRPPGAEQHTVVAGRTSKSAREQCVQGQMVIMQPIRAFVDQHFRAFCQSVELYTISYFQMVPMNPELMHYPNQPHMMPGYPMINAYQQSYLQNPAQWTPEMLLCMQMQMQQMVPGTATNSTYMPPQSKNTVTPNATSPLSQISDRDSGNDTISPPLTSQNRYVFLLRGKKKSCAMFECLGGLYFMVQFVSRNT | not soluble |
| MTLLLPRRRFSALLDHIKNWTSSIRADKQYRSFSTGDLVSPSQPSAFEPDFMEMEFGATPTTSSLPSHFDDNDLVPVEFKKSGVKLIPQGTRKAEKAKKFGSFEELSKVKLEDIHRAQSWFFVDVDPKSAERILMSNGFSDSSFLISFFRQKYVLSIWRKTKVEHLVIRNYQKKNGTMAFQLDIDRSFKNLVELTEYYTKNKSYVLCTKLSKGVSRPRRNPDTRTRA | not soluble |
| GSHMDINNKARIHWACRRGMRELDISIMPFFEHEYDSLSDDEKRIFIRLLECDDPDLFNWLMNHGKPADAELEMMVRLIQTRNRERGPVAI | soluble |
| GAMDSSEMSTICDKTLNPSFCLKFLNTKFASPNLQALAKTTLDSTQARATQTLKKLQSIIDGGVDPRSKLAYRSCVDEYESAIGNLEEAFEHLASGDGMGMNMKVSAALDGADTCLDDVKRLRSVDSSVVNNSKTIKNLCGIALVISNMLPRN | soluble |
| MPINFHDANNKYTYAQRNAHISWGEMIKGITNIQNKQIIDIGCGGGIYTKELALMGAKSVVGLDFSKEILQAAKENCSGFSNISFIHGDAHSTPYPNDTFDIVISRAVIHHLQDIPTFLREASRILKKNGVLIVQDRTIEDCTIPGSPEHIRGYFFSIFPKLIEIESKRRPKTTTIQKELQKYFLHVFPTQTQWEVRKIHDSVEALLQDLSPRTGRSILYELTDYELSQLLQQVQTALQNVSPIIERDRWTIWSAMKL | not soluble |
| MAHHHHHHMSTVEDFVLQALASTDAVESDKLAETLRVNHQDVVGAIKSLEADGYVVSEIKPKPTWKLTSEAENICESGSPEFLLWELLAGGAMTQEDIAEKFGKDVAAVAVANGMKAKIFALNKSEGKIIVTRSPSVSSFHDGIRVSLMRALKGEHVDPKEAETLKKRKLATLDNMKVFFVTKGPNYATQRRAKAVGDLTKEMLQDGSWKTAHFKEYNLGAAGREVGCGQLHPLLKVRQEFREIFMELGFREMETDRWVESSFWNFDALFIAQNHPARDVQDTFFVSKPSTHKLDHREVVDRVREMHEKNFNYTWKEEEARRNVLRTHTTCCSGYWLHHIAKSSPLLPNGRRDFCPGRYYSIDRVFRNEEMDRTHLCEFHQVEGCVIDRNISLSNMMHTFQLFFSRIGVEKLRFKPVFNPYTEPSMEIFGWHKQLKRWIEVGNSGLFRPEMLVPLGFDEDVTVMAWGLSLERPTMIKYGLSSIHELFGHKVDLRFIKQSKLMRF | soluble |
| MKHWFNIALAALALSSATVQAATEVKVGMSGRYFPFTFVKQDELQGFEVDVWNEIGKRNDYKVEFVTANFSGLLGLLETGRIDTISNQITITDARKAKYLFSDPYVIDGAQITVRKGNEAIKGIDDLAGKTVAVNLGSNFEQLLRNHDKDGKINIKTYDTGIEHDVALGRADAFVMDRLSALELIEKTGLPLQLAGSPFETIENAWPFVNNEKGQQLQGEVNKALAAMRADGTLSQIALKWFGTDISQ | not soluble |
| MNLVHTPNANRLHIALFGKRNSGKSSLINALTGQDTALVSDTPGTTTDSVQKAMEIHGIGPCLFIDTPGFDDEGELGNRRIERTWKAVEKTDIALLLCAGGGSAEETGEPDFTEELHWLEQLKAKNIPTILLINKADIRKNTASLAIRIKETFGSQPIPVSAKEKTGVELIRQAILEKLPEDFDQQSITGSLVTEGDLVLLVMPQDIQAPKGRLILPQVQTMRELLDKKCLIMSCTTDKLQETLQALSRPPKLIITDSQVFKTVYEQKPEESRLTSFSVLFAGYKGDIRYYVKSASAIGSLTESSRVLIAEACTHAPLSEDIGRVKLPHLLRKRIGEKLSIDIVAGTDFPQDLTPYSLVIHCGACMFNRKYVLSRIERARLQNVPMTNYGVAIAFLNGILNQIEYLEHHHHHH | not soluble |
| ASNFEEFVLVDNGGTGDVKVAPSNFANGVAEWISSNSRSQAYKVTCSVRQSSANNRKYTVKVEVPKVATQVQGGVELPVAAWRSYMNMELTIPVFATNDDCALIVKALQGTFKTGNPIATAIAANSGIY | soluble |
